Results reported in US20190248902A1 (published 2019).
Where a chain is given by its changes, count along the chain named. Blank lines part the entries; values can stand above or below the binder they belong to.

Tests used:
[1] = target: T1, human ASGR-1 carbohydrate binding domain (CBD) (148-291) (human, UniProt P07306 148-291); assay: X-ray crystal structure, legend of FIG. 25
T1 construct: also called ASGR-1 CBD; ASGR-1 CRD
T1 sequence: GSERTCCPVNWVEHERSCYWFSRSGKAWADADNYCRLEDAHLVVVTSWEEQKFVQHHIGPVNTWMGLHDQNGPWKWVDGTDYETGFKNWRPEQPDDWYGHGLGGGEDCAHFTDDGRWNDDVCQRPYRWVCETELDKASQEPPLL

[2] = target: T1, human ASGR-1 carbohydrate binding …; assay: X-ray crystal structure of the complex, 2.1 A
Human ASGR-2 = target: T2, Human ASGR-2 (human, UniProt P07307 1-311); assay: FACS on transfected HEK 293 cells; Y = signal at least 2x irrelevant IgG
T2 construct: Expressed on HEK 293 cells; cDNA GenBank NM_080913.3; also called huASGR-2; hASGR-2
T2 sequence: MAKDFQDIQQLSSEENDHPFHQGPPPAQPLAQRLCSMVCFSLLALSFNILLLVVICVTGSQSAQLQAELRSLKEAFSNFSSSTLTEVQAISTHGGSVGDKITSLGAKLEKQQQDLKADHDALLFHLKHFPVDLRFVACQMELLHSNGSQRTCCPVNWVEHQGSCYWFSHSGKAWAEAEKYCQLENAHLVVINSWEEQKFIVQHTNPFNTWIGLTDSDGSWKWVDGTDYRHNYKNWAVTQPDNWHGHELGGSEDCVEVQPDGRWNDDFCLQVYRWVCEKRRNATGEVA
Procedure: Human ASGR-1-specific, ligand competing antibody samples were tested for binding to ASGR-1 from other species (cynomologus monkey ASGR-1, mouse ASGR-1, rat ASGR-1, dog ASGR-1, and pig ASGR-1) as well as to human ASGR-2 in FACS binding assays at normalized antibody concentrations. For cell-based assays, HEK 293 cells expressing the appropriate antigen of interest were mixed with antibody sample or controls, incubated for 1 hour at 4° C., and then washed twice. Cells with bound antibody were then incubated with Alexa Fluor® 647 IgG Fc fragment-specific detection antibody and 7-AAD viability stain for 15 minutes at 4° C., washed once and resuspended in FACS buffer. Samples were analyzed using a BD Accuri™ Flow Cytometer and an Intellicyt HyperCyt Autosampler. As a negative control, supernatants and controls were also screened against HEK 293 cells transfected with empty parental vector. […] For membrane-prep binding assays, ASGR-1 species specific membrane preps were used to coat LumAvidin® microspheres (beads) and tested for binding to selected hybridoma supernatants or controls. Briefly, ASGR-1 species specific membrane preps were incubated with streptavidin-coated LumAvidin® beads for 45 minutes in the dark at room temperature and washed twice. Beads were resuspeneded in FACS buffer containing Stabilguard®. […] Samples were analyzed using an Intellicyt iQue™ Screener Platform. […]

Soluble ASGR-1 = target: T3, Soluble ASGR-1 (human, UniProt P07306 62-291, biotinylated); assay: limited antigen binding assay; biotinylated soluble ASGR-1 coated at 2.5 ng/mL on LumAvidin beads, FACS
T3 construct: Soluble recombinant protein; also called recombinant, soluble ASGR-1 biotinylated protein
T3 sequence: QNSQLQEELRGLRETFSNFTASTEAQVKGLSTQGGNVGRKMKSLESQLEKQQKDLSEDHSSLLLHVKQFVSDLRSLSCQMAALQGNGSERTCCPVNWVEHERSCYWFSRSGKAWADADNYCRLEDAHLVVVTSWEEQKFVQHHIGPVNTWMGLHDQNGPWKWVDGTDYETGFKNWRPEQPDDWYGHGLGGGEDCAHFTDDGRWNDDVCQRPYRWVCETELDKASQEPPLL
Procedure: To assess antibody and antigen interaction strength (relative binding affinity), ASGR-1 specific, ligand competing antibody hybridoma supernatants were tested in a limiting antigen binding assay. Titrated amounts of recombinant, soluble ASGR-1 biotinylated protein was incubated with streptavidin-coated LumAvidin Beads® for 45 minutes in the dark at room temperature and washed twice. Beads were resuspeneded in FACS buffer containing Stabilguard® and 0.05% Sodium Azide. Antigen-bound beads were then incubated with normalized hybridoma supernatant sample or controls for 18 hours in the dark at room temperature, washed twice, incubated with Alexa Fluor® 488 IgG fragment-specific detection antibody for 15 minutes in the dark at room temperature, washed once and finally resuspended in FACS buffer. Samples were analyzed using an Intellicyt iQue™ Screener Platform. FACS buffer supplemented with 1 mM Calcium Chloride was used in all steps. […] In this assay method, the antibody binding signal correlates with antibody affinity. Antibody binding data for a representative antigen coating concentration that fell in the linear range of the instrument signal detection is shown in Table 7.2. The degree of antibody binding to the target (ASGR-1) correlates with the measured fluorescent intensity and thus allows a relative comparison of affinities across the panel.

Pig ASGR-1 = target: T4, Pig ASGR-1 (pig); assay: FACS on transfected HEK 293 cells or membrane preps on beads; Y = signal at least 2x irrelevant IgG
T4 construct: Expressed on HEK 293 cells or as membrane prep on beads; cDNA GenBank NM_001244458
T4 chain: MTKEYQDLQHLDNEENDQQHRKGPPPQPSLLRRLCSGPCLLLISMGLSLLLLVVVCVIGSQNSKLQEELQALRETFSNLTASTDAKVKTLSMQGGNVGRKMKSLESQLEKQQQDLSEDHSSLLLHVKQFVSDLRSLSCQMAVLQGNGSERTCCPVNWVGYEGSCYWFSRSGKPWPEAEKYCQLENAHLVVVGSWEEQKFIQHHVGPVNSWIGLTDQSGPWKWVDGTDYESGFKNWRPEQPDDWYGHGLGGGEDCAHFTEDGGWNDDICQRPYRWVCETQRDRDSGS
Procedure: (§1) Human ASGR-1-specific, ligand competing antibody samples were tested for binding to ASGR-1 from other species (cynomologus monkey ASGR-1, mouse ASGR-1, rat ASGR-1, dog ASGR-1, and pig ASGR-1) as well as to human ASGR-2 in FACS binding assays at normalized antibody concentrations. For cell-based assays, HEK 293 cells expressing the appropriate antigen of interest were mixed with antibody sample or controls, incubated for 1 hour at 4° C., and then washed twice. Cells with bound antibody were then incubated with Alexa Fluor® 647 IgG Fc fragment-specific detection antibody and 7-AAD viability stain for 15 minutes at 4° C., washed once and resuspended in FACS buffer. Samples were analyzed using a BD Accuri™ Flow Cytometer and an Intellicyt HyperCyt Autosampler. As a negative control, supernatants and controls were also screened against HEK 293 cells transfected with empty parental vector. […] For membrane-prep binding assays, ASGR-1 species specific membrane preps were used to coat LumAvidin® microspheres (beads) and tested for binding to selected hybridoma supernatants or controls. Briefly, ASGR-1 species specific membrane preps were incubated with streptavidin-coated LumAvidin® beads for 45 minutes in the dark at room temperature and washed twice. Beads were resuspeneded in FACS buffer containing Stabilguard®. Antigen-bound beads were then incubated with normalized antibody sample for 1 hour in the dark at room temperature, washed twice, incubated with Alexa Fluor® 488 IgG Fc fragment-specific detection antibody for 15 minutes in the dark at room temperature, washed once and finally resuspended in FACS buffer. Samples were analyzed using an Intellicyt iQue™ Screener Platform. FACS buffer supplemented with 1 mM Calcium Chloride was used in all steps. As a negative control, supernatants and controls were also screened against a non-ASGR-1 antigen membrane prep coated on the LumAvidin® beads.

Dog ASGR-1 = target: T5, Dog ASGR-1 (dog); assay: as above
T5 construct: Expressed on HEK 293 cells or as membrane prep on beads; cDNA GenBank XM_546579
T5 chain: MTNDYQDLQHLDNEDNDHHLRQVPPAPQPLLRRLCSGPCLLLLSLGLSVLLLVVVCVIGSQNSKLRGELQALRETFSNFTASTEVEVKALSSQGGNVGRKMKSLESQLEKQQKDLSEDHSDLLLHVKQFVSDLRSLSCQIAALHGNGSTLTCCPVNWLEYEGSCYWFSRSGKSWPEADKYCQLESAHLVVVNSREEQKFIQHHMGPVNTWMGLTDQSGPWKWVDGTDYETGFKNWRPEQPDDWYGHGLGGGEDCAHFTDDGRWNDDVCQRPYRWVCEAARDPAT
Procedure: as §1

Cyno ASGR-1 = target: T6, Cyno ASGR-1 (cynomolgus monkey, UniProt P07306 1-291 (human entry)); assay: as above
T6 construct: Expressed on HEK 293 cells or as membrane prep on beads; cDNA from XP_005582755; also called cynomologus monkey ASGR-1
T6 chain: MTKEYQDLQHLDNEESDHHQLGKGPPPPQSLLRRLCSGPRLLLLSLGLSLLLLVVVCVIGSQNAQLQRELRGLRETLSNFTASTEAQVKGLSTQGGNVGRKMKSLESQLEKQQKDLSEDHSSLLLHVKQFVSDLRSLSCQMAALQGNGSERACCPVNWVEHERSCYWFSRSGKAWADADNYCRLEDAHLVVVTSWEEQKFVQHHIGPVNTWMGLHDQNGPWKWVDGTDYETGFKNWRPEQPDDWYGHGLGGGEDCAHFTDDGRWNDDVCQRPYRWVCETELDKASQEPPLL
Procedure: as §1

Mouse ASGR-1 = target: T7, Mouse ASGR-1 (mouse, UniProt P34927 1-284); assay: FACS on transfected HEK 293 cells or membrane preps on beads; binding = signal at least 2x irrelevant IgG
T7 construct: Expressed on HEK 293 cells or as membrane prep on beads; cDNA GenBank BC022106.1; also called muASGR-1; mASGR-1
T7 sequence: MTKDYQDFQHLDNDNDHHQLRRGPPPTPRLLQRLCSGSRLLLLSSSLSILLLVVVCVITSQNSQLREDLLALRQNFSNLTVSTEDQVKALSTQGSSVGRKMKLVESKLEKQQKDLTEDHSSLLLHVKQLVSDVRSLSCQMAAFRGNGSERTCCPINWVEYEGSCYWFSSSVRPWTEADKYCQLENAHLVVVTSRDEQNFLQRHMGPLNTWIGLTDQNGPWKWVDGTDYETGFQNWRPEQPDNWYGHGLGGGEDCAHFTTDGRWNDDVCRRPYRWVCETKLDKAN
Procedure: as §1

[3] = target: T1, human ASGR-1 carbohydrate binding …; assay: X-ray crystal structure of the complex, 2.6 A
Text: 2. The dataset was collected from a single crystal on beamline ID22 at the Argonne National Laboratory and processed with XDS/CCP4;
4. The 194C10 Fab/ASGR-1 CBD complex structure was solved by molecular replacement with the program Phaser; and […]

[4] = target: T8, human ASGR-1 (full length, expressed on cells) (human, UniProt P07306 1-291); assay: flow cytometry; biotinylated ligand on CHO-S cells stably expressing ASGR-1, detected with streptavidin-AF647
T8 construct: single point mutants were made in the CBD in the context of full-length ASGR-1; also called hASGR-1; huASGR-1
T8 sequence: T6 chain with G22R, S30P, R33Q, A64S, R68E, L77F, A152T

binding result [1]: binds
B1: 4A2 Fab (Fab, V domains shown)
VH: QVQLVQSGTEVKKPGASVKVSCKASGYTFTNYDINWVRQATGQGLEWMGWMHPNSGNTGYAQKFQGRVTLTRDTSISTAYMELSSLRSEDTAVYYCASSSGWYYFDYWGQGTLVTVSS
VL: DIVMTQSPDSLAVSLGERATINCKSSQSILHSSNNNNYLAWFQQKPGQPPKLLLYWASTRESGVPDRFSGSGSGTDFTLTISSLQPEDVAVYYCQQYYNTPVTFGPGTKVGIKR
notes: Expressed directly as a Fab, with a double stop codon at the end of the CH1 domain; also called Fab fragment of 4A2

binding result [2]: binds
B2: 22G5 Fab (Fab, V domains shown)
VH: EVQLLESGGGLVQPGGSLRLSCAASGFTFSSYAMNWVRQAPGMGLEWVSVISRSGGYTYYADSVKGRFTISRDNSKNTLYLQMNSLRAEDTAVYYCASRLAVAGSEAFDIWGQGTLVTVSS
VL: DIQMTQSPSSLSASVGDRVTITCRASQNISSYLNWYQQKQGKAPKLLIYAASSLQNGVPSRFSGRGSGTDFTLTISSLQPEDFATYYCQQSYRTPLFTFGPGTKVDFK
modifications: N-acetylglucosamine (NAG100) is listed among the light chain boundary residues
notes: Made by cleaving the 22G5-IgG4 mAb with papain; also called Fab fragment of 22G5

binding result (Human ASGR-2): binds
FACS Geomean (Soluble ASGR-1): 4910 FACS Geomean
binding result (Pig ASGR-1): binds
binding result (Dog ASGR-1): binds
binding result (Cyno ASGR-1): binds
binding result (Mouse ASGR-1): no binding
B3: 7F4 (antibody, V domains shown)
VH: QLQLQESGPGLVKPSETLSLTCTVSGGSISRSSYYWGWIRQPPGKGLEWIGNIYYSGATYYNPSLKSRVTISVDTSTNQFSLKLSSVTAADTAVYYCARHSGSWSLDYWGQGTLVTVSS
VL: DIQMTQSPSSLSASVGDRVTITCRTSQGIRNDLGWYQQKPGKAPKRLIYAASNLQSGVPSRFSGSGSGTEFTLTISSLQPEDFATYYCLQHSAYPLTFGGGTKVEIK
notes: Tested as hybridoma supernatant at normalized concentration

binding result [3]: binds
B4: 194C10 Fab (Fab, V domains shown)
VH: QVQLQQWGAGLLKPSETLSLTCAVSGGSFRYYYWSWIRQPPGKGLEWFGEINHAGSTNYNPSLKSRVTISIDTSKNQFSLKLRSVTAADTAVYYCARDYGAFDIWGQGTMVTVSS
VL: EIVLTQSPGTLSLSPGERATLSCRASPSVNSGYLAWYQQKPGQTPRLLIFGASSRATGIPDRFSASGSGADFTLTISRLEPEDFAVYFCQQYESSPWTFGQGTKVEIKR
notes: also called Fab fragment of 194C10

EC50 [4]: 10.7 nM
B5: desialylated, biotinylated asialofetuin (bovine fetuin, AHSG) (ligand, UniProt P12763 19-359, looked up)
chain: IPLDPVAGYKEPACDDPDTEQAALAAVDYINKHLPRGYKHTLNQIDSVKVWPRRPTGEVYDIEIDTLETTCHVLDPTPLANCSVRQQTQHAVEGDCDIHVLKQDGQFSVLFTKCDSSPDSAEDVRKLCPDCPLLAPLNDSRVVHAVEVALATFNAESNGSYLQLVEISRAQFVPLPVSVSVEFAVAATDCIAKEVVDPTKCNLLAEKQYGFCKGSVIQKALGGEDVRVTCTLFQTQPVIPQPQPDGAEAEAPSAVPDAAGPTPSAAGPPVASVVVGPSVVAVPLPLHRAHYDLRHTFSGVASVESSSGEAFHVGKTPIVGQPSIPGGPVRLCPGRIRYFKI
modifications: desialated with C. perfringens and A. ureafaciens neuraminidases; biotinylated with Innolink Biotin 354S
notes: also called bn-asialofetuin; protein ligand
